Data taken from patent US20030162225 (published 2003).
Where a chain is given by its changes, count along the chain named.

B1: Group I clone 1 (random region) (ssRNA)
RNA: GGGAGACAAGACUAGACGCUCAACUUUCCUAGCGCACAUGCGCACCUCUAUGCGUAAUACGAACGUUGACGUUCGACAUGAGACUCACAACAGUUCCCUUUAGUGAGGGUUAAUU
modifications: 2'-F pyrimidines
B2: Group I clone 4 (random region) (ssRNA)
RNA: B1 RNA with U26C, G32A, A69G
modifications: 2'-F pyrimidines
B3: Group I clone 24 (random region) (ssRNA)
RNA: B1 RNA with C33U, C37U, C41U, A69G
modifications: 2'-F pyrimidines
B4: Group I clone 7 (random region) (ssRNA)
RNA: B1 RNA with A69G
modifications: 2'-F pyrimidines
B5: Group I clone 6 (random region) (ssRNA)
RNA: B1 RNA with U26G, G32A, U39C, A69G
modifications: 2'-F pyrimidines
B6: Group I clone 3 (random region) (ssRNA)
RNA: B1 RNA with U25G, G32A, A69G
modifications: 2'-F pyrimidines
B7: Group I clone 22 (random region) (ssRNA)
RNA: B1 RNA with G32A, C33U
modifications: 2'-F pyrimidines
B8: Group I clone 27 (random region) (ssRNA)
RNA: B1 RNA with G32A, G65A, U66G, C70G, G71A
modifications: 2'-F pyrimidines
B9: Group I clone 5 (random region) (ssRNA)
RNA: B1 RNA with G32A, U39C, A69G
modifications: 2'-F pyrimidines
B10: Group I clone 11 (random region) (ssRNA)
RNA: B1 RNA with C28G, A57G, A69G
modifications: 2'-F pyrimidines
B11: Group I clone 12 (random region) (ssRNA)
RNA: B1 RNA with U67C, A69G
modifications: 2'-F pyrimidines
B12: Group I clone 18 (random region) (ssRNA)
RNA: B1 RNA with U67A
modifications: 2'-F pyrimidines
B13: Group I clone 14 (random region) (ssRNA)
RNA: B1 RNA with C37U, A69G
modifications: 2'-F pyrimidines
B14: Group I clone 9 (random region) (ssRNA)
RNA: B1 RNA with U39C, A69G
modifications: 2'-F pyrimidines
B15: Group I clone 26 (random region) (ssRNA)
RNA: B1 RNA with G32A, C37U, C41U
modifications: 2'-F pyrimidines
B16: Group I clone 19 (random region) (ssRNA)
RNA: B1 RNA with U51C
modifications: 2'-F pyrimidines
B17: Group I clone 10 (random region) (ssRNA)
RNA: B1 RNA with U27C, C43U, A69G
modifications: 2'-F pyrimidines
B18: Group I clone 13 (random region) (ssRNA)
RNA: B1 RNA with U26C, C33U, A69G
modifications: 2'-F pyrimidines
B19: Group I clone 16 (random region) (ssRNA)
RNA: B1 RNA with C37U, U67C, A69G
modifications: 2'-F pyrimidines
B20: Group I clone 23 (random region) (ssRNA)
RNA: B1 RNA with G32A, C37U
modifications: 2'-F pyrimidines
B21: Group I clone 17 (random region) (ssRNA)
RNA: B1 RNA with C28G, G42U
modifications: 2'-F pyrimidines
B22: Group I clone 15 (random region) (ssRNA)
RNA: B1 RNA with C37U, C48A, A69G
modifications: 2'-F pyrimidines
B23: Group I clone 2 (random region) (ssRNA)
RNA: B1 RNA with G32A, A69G
modifications: 2'-F pyrimidines
B24: Group I clone 20 (random region) (ssRNA)
RNA: B1 RNA with C46U, A69G
modifications: 2'-F pyrimidines
B25: orphan clone 6 (random region) (ssRNA)
RNA: GGGAGACAAGACUAGACGCUCAAGCUGACCACCGCCAACGCAACCUCCAAUGACUUGGAUCACCUAGACGAUUUCGACAUGAGACUCACAACAGUUCCCUUUAGUGAGGGUUAAUU
modifications: 2'-F pyrimidines
B26: Group I clone 8 (random region) (ssRNA)
RNA: GGGAGACAAGACUAGACGCUCAACUUUCGCUAGCGCACAUGCGCACCUCUAUGCGCAUAUACGAACGUUGGCGUUCGACAUGAGACUCACAACAGUUCCCUUUAGUGAGGGUUAAUU
modifications: 2'-F pyrimidines
B27: orphan clone 2 (random region) (ssRNA)
RNA: GGGAGACAAGACUAGACGCUCAACUCCUCUAGCACCAUAUCCAAGCUACAACUUCACAACGACUCGGCCUUCGACAUGAGACUCACAACAGUUCCCUUUAGUGAGGGUUAAUU
modifications: 2'-F pyrimidines
B28: orphan clone 4 (random region) (ssRNA)
RNA: GGGAGACAAGACUAGACGCUCAACUACGUUCCUUAUCCUCCCUUCAGGAACCUGUACACCACAUUGCUUCGACAUGAGACUCACAACAGUUCCCUUUAGUGAGGGUUAAUU
modifications: 2'-F pyrimidines
B29: orphan clone 3 (random region) (ssRNA)
RNA: GGGAGACAAGACUAGACGCUCAACUACGAACUCAUGACACAAGGAUGCAAUCUCAUCCCGCCAGCCCUUCGACAUGAGACUCACAACAGUUCCCUUUAGUGAGGGUUAAUU
modifications: 2'-F pyrimidines
B30: orphan clone 5 (random region) (ssRNA)
RNA: GGGAGACAAGACUAGACGCUCAAUAUCAACAUUAGGGCUCCUUGGGGACCAGCGUCUCCUUGCAGCCCCGAUUCGACAUGAGACUCACAACAGUUCCCUUUAGUGAGGGUUAAUU
modifications: 2'-F pyrimidines

biological target: prion protein PrP alpha-form, full-length mature, oxidized (Bos taurus, UniProt P10279 P10279:25-241); experiment: EMSA; settings: tags: 6-octarepeat allele, Met-initiated, E. coli, untagged (Ni-NTA, SP-Sepharose, Superdex 75)
Sequence (P10279 25-241, one chain of several): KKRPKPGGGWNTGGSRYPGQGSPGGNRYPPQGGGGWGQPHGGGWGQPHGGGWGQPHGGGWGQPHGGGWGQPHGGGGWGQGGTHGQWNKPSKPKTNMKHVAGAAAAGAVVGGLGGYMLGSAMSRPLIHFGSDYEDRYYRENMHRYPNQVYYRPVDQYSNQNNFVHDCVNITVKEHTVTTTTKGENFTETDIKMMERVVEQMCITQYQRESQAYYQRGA

Binder	binding result
B1	binds
B2	binds
B3	binds
B4	binds
B5	binds
B6	binds
B7	binds
B8	binds
B9	binds
B10	binds
B11	binds
B12	binds
B13	binds
B14	binds
B15	binds
B16	binds
B17	binds
B18	binds
B19	binds
B20	binds
B21	binds
B22	binds
B23	binds
B24	binds
B25	binds
B26	binds
B27	binds
B28	binds
B29	binds
B30	binds
